Laboratory results: paper PMC9974672, “Luteolin protects DYT-PRKRA cells from apoptosis by suppressing PKR activation” (Frontiers in Pharmacology, 2023)
Residue numbers refer to the chain shown, from its start. Names and notes keep the numbering of the source.

Biological target: T1, PKR fused to the GAL4 DNA-binding domain (mammalian two-hybrid bait) (UniProt P19525 1-551)
T1 construct: also called GAL4-DBD PKR; source: mammalian two-hybrid fusion, transfected cells (COS-1 by the methods, HeLa by the legends)
Assay: two-hybrid; mammalian two-hybrid, PKR as GAL4-DBD fusion (bait), PACT proteins as VP16-AD fusions (preys), pG5Luc firefly luciferase reporter normalised to pRL-Null; cells untreated, no stress
Conditions: partners not purified

T1 sequence (P19525 whole entry, the tested form may be a part): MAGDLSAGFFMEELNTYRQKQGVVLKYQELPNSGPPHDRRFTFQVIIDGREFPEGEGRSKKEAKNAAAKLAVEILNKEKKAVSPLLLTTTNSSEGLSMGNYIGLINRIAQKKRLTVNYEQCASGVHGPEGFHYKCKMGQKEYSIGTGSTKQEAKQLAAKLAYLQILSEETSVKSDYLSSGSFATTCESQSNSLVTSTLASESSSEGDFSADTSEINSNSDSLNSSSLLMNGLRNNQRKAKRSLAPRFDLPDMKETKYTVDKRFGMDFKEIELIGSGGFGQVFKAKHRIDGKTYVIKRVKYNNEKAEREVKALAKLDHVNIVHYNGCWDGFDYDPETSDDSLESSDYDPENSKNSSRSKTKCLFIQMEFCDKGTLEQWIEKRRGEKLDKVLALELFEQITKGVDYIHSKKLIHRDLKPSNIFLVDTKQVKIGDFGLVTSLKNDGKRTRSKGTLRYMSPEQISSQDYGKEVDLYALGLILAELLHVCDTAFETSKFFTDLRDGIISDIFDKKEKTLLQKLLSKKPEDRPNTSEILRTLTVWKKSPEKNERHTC

B1: DD (S246D, S287D) phosphomimic mutant PACT fused to the VP16 activation domain (mammalian two-hybrid prey) (natural protein, UniProt O75569 1-313, looked up)
chain: MSQSRHRAEAPPLEREDSGTFSLGKMITAKPGKTPIQVLHEYGMKTKNIPVYECERSDVQIHVPTFTFRVTVGDITCTGEGTSKKLAKHRAAEAAINILKANASICFAVPDPLMPDPSKQPKNQLNPIGSLQELAIHHGWRLPEYTLSQEGGPAHKREYTTICRLESFMETGKGASKKQAKRNAAEKFLAKFSNISPENHISLTNVVGHSLGCTWHSLRNSPGEKINLLKRSLLSIPNTDYIQLLDEIAKEQGFNITYLDIDELSANGQYQCLAELSTSPITVCHGDGISCGNAQSDAAHNALQYLKIIAERK
notes: PACT ORF with serines 246 and 287 replaced by aspartic acids, in pVP16AASV19N; also called DD PACT; DD mutant; source: mammalian two-hybrid fusion, transfected cells (COS-1 by the methods, HeLa by the legends)
fold interaction against wt PACT-PKR (two-hybrid luciferase): > 2 fold

B2: P222L PACT fused to the VP16 activation domain (mammalian two-hybrid prey) (natural protein, UniProt O75569 1-313, looked up)
chain: B1 chain with P222L, D246S, D287S
notes: PACT ORF with the DYT-PRKRA patient mutation P222L, in pVP16AASV19N; Plasmid described in Vaughn et al., 2015; Burnett et al., 2020; also called P222L mutant; source: mammalian two-hybrid fusion, transfected cells (COS-1 by the methods, HeLa by the legends)
fold interaction against wt PACT-PKR (two-hybrid luciferase): ~3 fold
